Non-standard residues stand in square brackets, D forms with d. hArg = N=C(N)NCCCC[C@H](N)C(=O)O; Cit = NC(=O)NCCC[C@H](N)C(=O)O; Orn = NCCC[C@H](N)C(=O)O
Molecular target: T1, murine E^d MHC class II allele (Mus musculus, UniProt P01904+P01915)
T1 sequence (P01904 26-255): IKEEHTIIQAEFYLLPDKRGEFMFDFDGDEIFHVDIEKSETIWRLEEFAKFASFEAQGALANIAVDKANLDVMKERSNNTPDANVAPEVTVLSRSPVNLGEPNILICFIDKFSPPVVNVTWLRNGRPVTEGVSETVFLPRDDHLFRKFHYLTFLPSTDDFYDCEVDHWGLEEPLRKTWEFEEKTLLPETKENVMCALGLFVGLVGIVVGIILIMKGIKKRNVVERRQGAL
T1 sequence (P01915 27-264 limits assumed): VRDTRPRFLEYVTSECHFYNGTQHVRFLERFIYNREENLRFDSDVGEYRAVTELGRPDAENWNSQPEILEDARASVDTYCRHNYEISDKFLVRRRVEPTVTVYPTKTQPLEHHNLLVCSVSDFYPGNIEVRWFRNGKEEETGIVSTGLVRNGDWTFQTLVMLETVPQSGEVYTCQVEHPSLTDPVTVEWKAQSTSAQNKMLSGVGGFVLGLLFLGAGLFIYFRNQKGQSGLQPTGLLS
Assay: simultaneous assay, E^d allele (A20 APC, G28.C9 T hybridoma, HEL106-116; HT-2 [3H]TdR readout)
Format: cell-based
Design: The A20 and CH27 B cell lymphoma lines express H-2^d and H-2^k alleles, respectively; endogenous in cells; host or cells: A20 B cell lymphoma (mitomycin C-treated or paraformaldehyde-fixed)
Summary of the method: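 Antigenic peptide, mitomycin C-treated APC, effector compound and allele-restricted T hybridoma cultured together for 24 h. Supernatant then transferred to interleukin-dependent HT-2 cells. T cell activation quantified as [3H]TdR uptake by HT-2 cells.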

[1] = Table 7, AE peptide 64 μM, supernatant 1:4
[2] = Table 15, AE peptide 16 μM, supernatant 1:4
[3] = Table 14, AE peptide 64 μM, supernatant 1:4
[4] = Table 16, AE peptide 4 μM, supernatant 1:8
[5] = Table 17, AE peptide 4 μM, supernatant 1:4
[6] = Table 18, AE peptide 64 μM, supernatant 1:4
[7] = Table 11, AE peptide 64 μM, supernatant 1:8
[8] = Table 9, AE peptide 64 μM, supernatant 1:4
[9] = Table 1, AE peptide 16 μM (second value), 0.4 μM HEL106-116, supernatant 1:4
[10] = Table 1, AE peptide 64 μM (first value), 0.4 μM HEL106-116, supernatant 1:4
[11] = Table 5, AE peptide 64 μM, supernatant 1:4
[12] = Table 2, AE peptide 64 μM, 0.05 μM HEL106-116, supernatant 1:2
[13] = Table 4, AE109 homolog 64 μM, supernatant 1:2

## Ac-LRMK HArg PK-NH2 (Ac-LRMK[hArg]PK-NH2; SMILES CSCC[C@H](NC(=O)[C@H](CCCNC(=N)N)NC(=O)[C@H](CC(C)C)NC(C)=O)C(=O)N[C@@H](CCCCN)C(=O)N[C@@H](CCCCNC(=N)N)C(=O)N1CCC[C@H]1C(=O)N[C@@H](CCCCN)C(N)=O) [AE227]
[1]
  Times Baseline Response, E^d: 8.1
[2]
  Times Baseline Response, E^d: 32.3

## Ac-LRMK K PK-NH2 (Ac-LRMKKPK-NH2) [AE229]
[1]
  Times Baseline Response, E^d: 13.2

## Ac-LRMK M PK-NH2 (Ac-LRMKMPK-NH2) [AE236]
[1]
  Times Baseline Response, E^d: 15.2

## Ac-LRMK N PK-NH2 (Ac-LRMKNPK-NH2) [AE232]
[1]
  Times Baseline Response, E^d: 12.5
[2]
  Times Baseline Response, E^d: 24.3

## Ac-LRMK Q PK-NH2 (Ac-LRMKQPK-NH2) [AE233]
[1]
  Times Baseline Response, E^d: 11.5

## Ac-LRMK Y PK-NH2 (Ac-LRMKYPK-NH2; not fully specified; printed as Ac-LRMK Y PK-NH2) [AE235]
[1]
  Times Baseline Response, E^d: 14.6
[3]
  Times Baseline Response, E^d: 12.5
[2]
  Times Baseline Response, E^d: 29.4
[4]
  Times Baseline Response, E^d: 14.3
[5]
  Times Baseline Response, E^d: 51
[6]
  Times Baseline Response, E^d: 12.5

## Ac-LRMK l PK-NH2 [AE164]
[7]
  Times Baseline Response, E^d: 17.7
[3]
  Times Baseline Response, E^d: 12.9

## Ac-LRMKL p K-NH2 [AE165]
[7]
  Times Baseline Response, E^d: 26.6

## Ac-LRMKLP F-NH2 (Ac-LRMKLPF-NH2) [AE248]
[8]
  Times Baseline Response, E^d: 17.2
[2]
  Times Baseline Response, E^d: 34.7

## Ac-LRMKLP N-NH2 (Ac-LRMKLPN-NH2) [AE246]
[8]
  Times Baseline Response, E^d: 7.3
[4]
  Times Baseline Response, E^d: 21.8

## Ac-LRMKLP k-NH2 [AE166]
[7]
  Times Baseline Response, E^d: 26.4
[3]
  Times Baseline Response, E^d: 14.7

## Ac-LRMKLPK-NH2 [AE114]
[9]
  Times Baseline Response, E^d: 26.0
[10]
  Times Baseline Response, E^d: 39.8
Table 3, AE peptide 64 μM, supernatant 1:4
  Times Baseline Response, Ed: 10.0
[11]
  Times Baseline Response, E^d: 10.0
Table 6, AE peptide 64 μM, supernatant 1:4
  Times Baseline Response, E^d: 10.6
[1]
  Times Baseline Response, E^d: 10.6
[8]
  Times Baseline Response, E^d: 7.7
[7]
  Times Baseline Response, E^d: 24.1
Table 12, AE peptide 1 μM (fourth value), supernatant 1:2
  Times Baseline Response, E^d: 5
Table 12, AE peptide 4 μM (third value), supernatant 1:2
  Times Baseline Response, E^d: 62
Table 12, AE peptide 16 μM (second value), supernatant 1:2
  Times Baseline Response, E^d: 115
Table 12, AE peptide 64 μM (first value), supernatant 1:2
  Times Baseline Response, E^d: 103
Table 13, AE peptide 1 μM (fourth value), supernatant 1:4
  Times Baseline Response, E^d: 2
Table 13, AE peptide 4 μM (third value), supernatant 1:4
  Times Baseline Response, E^d: 18
Table 13, AE peptide 16 μM (second value), supernatant 1:4
  Times Baseline Response, E^d: 65
Table 13, AE peptide 64 μM (first value), supernatant 1:4
  Times Baseline Response, E^d: 48
[3]
  Times Baseline Response, E^d: 12.4
[2]
  Times Baseline Response, E^d: 228
[4]
  Times Baseline Response, E^d: 15.7
[5]
  Times Baseline Response, E^d: 47
[6]
  Times Baseline Response, E^d: 12.4

## Ac-LRMKLPKPPK-NH2 [AE168]
[10]
  Times Baseline Response, E^d: 16.7, n.d.

## Ac-LRMKLPKPPP-NH2 [AE167]
[10]
  Times Baseline Response, E^d: 20.1, n.d.

## Ac-LRMKLPKSAK-NH2 [AE110]
[9]
  Times Baseline Response, E^d: 27.8
[10]
  Times Baseline Response, E^d: 47.1
[12]
  Times Baseline Response, E^d: 23.8

## Ac-LRMKLP[Cit]-NH2 [AE241]
[8]
  Times Baseline Response, E^d: 3.4
[4]
  Times Baseline Response, E^d: 7.1

## Ac-LRMK[Orn]PK-NH2 [AE225]
[1]
  Times Baseline Response, E^d: 10.4

## Ac-LRNKNPF-NH2 [AE348]
[2]
  Times Baseline Response, E^d: 13.1

## Ac-LRNKNPK-NH2 [AE349]
[2]
  Times Baseline Response, E^d: 25.3

## Ac-LR[Orn]KLPK-NH2 [AE195]
[11]
  Times Baseline Response, E^d: 12.1
[2]
  Times Baseline Response, E^d: 34.3

## Ac-L[Cit]MKNPK-NH2 [AE342]
[2]
  Times Baseline Response, E^d: 2.3

## Ac-L[Cit]NKLPK-NH2 [AE343]
[2]
  Times Baseline Response, E^d: 1.2

## Ac-NLQLDSLRMKLPKSAK-NH2 [AE150]
[12]
  Times Baseline Response, E^d: 3.2

## Ac-QLDSLRMKLPKSAK-NH2 [AE152]
[12]
  Times Baseline Response, E^d: 2.3

## Ac-SLRMKLPKSAK-NH2 [AE155]
[12]
  Times Baseline Response, E^d: 23.4

## Ac-Y D MKLPKSAK-NH2 [AE135]
[13]
  Times Baseline Response, E^d: 1.2

## Ac-Y E MKLPKSAK-NH2 [AE136]
[13]
  Times Baseline Response, E^d: 0.9

## Ac-Y F MKLPKSAK-NH2 [AE139]
[13]
  Times Baseline Response, E^d: 0.8

## Ac-Y H MKLPKSAK-NH2 [AE133]
[13]
  Times Baseline Response, E^d: 0.9

## Ac-Y K MKLPKSAK-NH2 [AE134]
[13]
  Times Baseline Response, E^d: 0.7
[4]
  Times Baseline Response, E^d: 1.2

## Ac-Y L MKLPKSAK-NH2 [AE142]
[13]
  Times Baseline Response, E^d: 0.8

## Ac-Y M MKLPKSAK-NH2 [AE141]
[13]
  Times Baseline Response, E^d: 1.1

## Ac-Y N MKLPKSAK-NH2 [AE137]
[13]
  Times Baseline Response, E^d: 0.8

From patent US6835382B2, “Ii peptide therapeutics to enhance antigen presentation” (University of Massachusetts, priority 1996, dated 2004)
